Reference: PMC4164936, “The translation elongation factor eEF1A1 couples transcription to translation during heat shock response”

Assays:
[1] = target: T1, eEF1A1 (Homo sapiens (HeLa S-100)) (UniProt P68104); assay: EMSA; conditions: RNA EMSA: purified eEF1A1 with 20 kcpm RNA (~0.1 pmol/ul), 50 uM GTP, 30 min, room temperature; protein stock in 50 mM Tris-HCl pH 7.5, 100 mM KCl, 0.5 mM …
T1 sequence: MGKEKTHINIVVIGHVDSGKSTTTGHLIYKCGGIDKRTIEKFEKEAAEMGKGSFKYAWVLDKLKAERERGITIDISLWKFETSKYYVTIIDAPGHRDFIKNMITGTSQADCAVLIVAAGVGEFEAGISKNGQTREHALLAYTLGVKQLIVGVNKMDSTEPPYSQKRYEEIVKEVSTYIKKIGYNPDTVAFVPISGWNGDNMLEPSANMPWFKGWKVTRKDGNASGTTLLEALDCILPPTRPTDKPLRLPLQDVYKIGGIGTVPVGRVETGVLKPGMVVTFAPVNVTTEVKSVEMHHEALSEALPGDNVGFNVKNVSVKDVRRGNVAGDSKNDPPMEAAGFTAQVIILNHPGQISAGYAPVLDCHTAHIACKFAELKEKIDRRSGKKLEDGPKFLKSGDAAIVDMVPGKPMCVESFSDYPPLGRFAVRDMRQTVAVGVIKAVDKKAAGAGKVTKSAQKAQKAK

[2] = target: eEF1A1 (Homo sapiens (HeLa S-100), UniProt P68104 1-462); assay: EMSA; relatively weak; reviewer notes no saturation, >300 nM; RNA EMSA: purified eEF1A1 with 20 kcpm RNA (~0.1 pmol/ul), 50 uM GTP, 30 min, room temperature; protein stock in 50 mM Tris-HCl pH 7.5, 100 mM KCl, 0.5 mM EDTA, 2 mM DTT, 10% glycerol; binding buffer per cited protocols (Yan 2008, Shamovsky 2006); conditions: protein: native; tags: none; (radiolabeled); blunt

Molecule: HSP70 3'UTR
- Kd [1]: 100 nM

Molecule: GGGGGGCCUUUCCAAGAUUGCUGUUUUUGUUUUGGAGCUUCAAGACUUUGCAUUUCCUAGUAUUUCUGUUUGUCAGUUCUCAAUUUCCUGUGUUUGCAAUGUUGAAAUUUUUUGGUGAAGUACUGAACUUGCUUUUUUUCCGGUUUCUACAUGCAGAGAUGAAUUUAUACUGCCAUCUUACGACUAUUUCUUCUUUUUAAUACACUUAACUCAGGCCAUUUUUUAAGUUGGUUACUUCAAAGUAAAUAAACUUUAAAAUUCAA [HSP70 3'UTR]
- Kd [1]: 100 nM
- binding [1]: binds

B1: HSPA1A -141/-91 promoter (dsDNA)
DNA 1: GGAAGGCTGGGGGGCAGGACGGGAGGCGAAAACCCTGGAATATTCCCGACC
DNA 2: GGTCGGGAATATTCCAGGGTTTTCGCCTCCCGTCCTGCCCCCCAGCCTTCC
- binding result [2]: binds
